Consider two proteins from PMC9108986, “Bioinformatic identification of previously unrecognized amyloidogenic proteins” (The Journal of Biological Chemistry, 2022).

Substitutions are numbered along the chain they refer to. Names may count otherwise.

The data set concerns the molecule itself. The experiment in a line: amyloid fibre formation (thioflavin T fluorescence + electron microscopy + X-ray fibre diffraction); self-association into fibres; 50 uM protein in 1x PBS with 40 uM ThT, 37 °C, 700 rpm double orbital shaking with a PTFE bead, ~138 h; end-point samples imaged by negative-stain TEM; fibres diffracted (rings at 4.7 and 10 Å).

B1: mCherry-fused low-complexity domain of TFG, residues 237-327, G269V (domain or fragment, human, UniProt Q92734 237-327, looked up)
chain: GQIEGQMYQQYQQQAGYGAQQPQAPPQQPQQYVIQYSASYSQQTGPQQPQQFQGYGQQPTSQAPAPAFSGQPQQLPAQPPQQYQASNYPAQ
notes: TRK-fused gene protein (TFG), human, low-complexity domain, residues 237-327, with the documented pathogenic mutation G269V (Charcot-Marie-Tooth disease type 2); also called TFG (237-327) G269V; mutant construct; source: E. coli BL21(DE3) Gold, purified (nickel-nitrilotriacetic acid, size-exclusion chromatography), dialyzed into PBS
Turning to B1, the binding result is listed as “binds”.

B2: mCherry-fused low-complexity domain of TFG, residues 237-327, P285L (domain or fragment, human, UniProt Q92734 237-327, looked up)
chain: B1 chain with V33G, P49L
notes: also called TFG (237-327) P285L; mutant construct; source: E. coli BL21(DE3) Gold, purified (nickel-nitrilotriacetic acid, size-exclusion chromatography), dialyzed into PBS
Take B2: the binding result is recorded as “binds”.
